According to patent US8518883B2, “Method of reducing deleterious effects of ischemia by administration of a thrombopoietin receptor ligand” (MCW Research Foundation, Inc., priority 2006, dated 2013):
“Also recorded” adds a separate entry of the source.

Assays:
[1] = tested on: Sprague Dawley rats; assay: Coronary artery ligation model, Tpo given after the onset of ischemia; type: in vivo, rat; conditions: Tpo 0.05 μg/kg 15 min prior to reperfusion (15 min after onset of 30 min regional ischemia)
Experimental: FIG. 9 is a graphic depiction of the effect of Tpo (0.05 μg/kg) on myocardial infarct size in vivo (as percentage % of area at risk) when administered intravenously 15 minutes after the onset of 30 minutes regional myocardial ischemia in vivo induced by suture ligation of the left main coronary artery and 3 hours reperfusion. *=P<0.05, with Tpo vs. without Tpo (control).
Animals used in this study were adult male Sprague Dawley rats (200-350 g, generally 300 g). Animals were housed under standard conditions and allowed to feed ad lib. The Animal Care and Use Committee of the Medical College of Wisconsin approved all procedures performed in accordance with the regulations adopted by the National Institutes of Health.
A myocardial infarction was produced via the ligation of the left main artery using 6-0 prolene suture (See, e.g., Clements-Jewery, et al., supra, 2002; Farkas, et al., supra, 2002). Rats were anesthetized with sodium pentobarbital (50 mg/kg i.p.). The left main coronary artery was identified and ligated with a 5-0 Prolene suture threaded through a polyethylene tube to act as an occluder. […]
The heart was sectioned in 2 mm segments from apex to atrio-ventricular groove in a transverse fashion. Each segment was recorded and placed in formalin. […] The percentage of infarction of each slide was expressed as a percentage of the entire area of the heart.

[2] = tested on: rats; assay: Platelet count and hematocrit after single Tpo treatment; type: in vivo, rat
Experimental: Prior to treatment, platelet counts in untreated rats were 850±96 10^3/ul, and the hematocrit in untreated rats was 43.8±1.8%.
FIG. 13A/B is a plot of additional data (mean±standard deviation, n+6 per group) that evaluated a single dose of Tpo (1.0 μg/kg i.v.) on platelet count and hematocrit. There was no effect.

[3] = single Tpo 0.05 μg/kg i.v., 14 day follow up
[4] = single Tpo 1.0 μg/kg i.v., 28 day follow up

## Thrombopoietin [Tpo]
[1]
  Myocardial infarct size: decrease
[2]; [3]
  Hematocrit: remained unchanged; also recorded: did not result in an increased
  Platelet count: remained unchanged; also recorded: did not result in an increased
[2]; [4]
  Hematocrit: no effect
  Platelet count: no effect
